This is an account of results in PMC3809612.

The assay concerns the target rat collagen (Type I collagen), coated on 96-well plates (rat) (UniProt P02454). The assay is described as follows: binding of fluorescent protein or nanoworm conjugate to coated 96-well plates.
Sequence of UniProt P02454 (P02454 152-1207, chain 1 of 2): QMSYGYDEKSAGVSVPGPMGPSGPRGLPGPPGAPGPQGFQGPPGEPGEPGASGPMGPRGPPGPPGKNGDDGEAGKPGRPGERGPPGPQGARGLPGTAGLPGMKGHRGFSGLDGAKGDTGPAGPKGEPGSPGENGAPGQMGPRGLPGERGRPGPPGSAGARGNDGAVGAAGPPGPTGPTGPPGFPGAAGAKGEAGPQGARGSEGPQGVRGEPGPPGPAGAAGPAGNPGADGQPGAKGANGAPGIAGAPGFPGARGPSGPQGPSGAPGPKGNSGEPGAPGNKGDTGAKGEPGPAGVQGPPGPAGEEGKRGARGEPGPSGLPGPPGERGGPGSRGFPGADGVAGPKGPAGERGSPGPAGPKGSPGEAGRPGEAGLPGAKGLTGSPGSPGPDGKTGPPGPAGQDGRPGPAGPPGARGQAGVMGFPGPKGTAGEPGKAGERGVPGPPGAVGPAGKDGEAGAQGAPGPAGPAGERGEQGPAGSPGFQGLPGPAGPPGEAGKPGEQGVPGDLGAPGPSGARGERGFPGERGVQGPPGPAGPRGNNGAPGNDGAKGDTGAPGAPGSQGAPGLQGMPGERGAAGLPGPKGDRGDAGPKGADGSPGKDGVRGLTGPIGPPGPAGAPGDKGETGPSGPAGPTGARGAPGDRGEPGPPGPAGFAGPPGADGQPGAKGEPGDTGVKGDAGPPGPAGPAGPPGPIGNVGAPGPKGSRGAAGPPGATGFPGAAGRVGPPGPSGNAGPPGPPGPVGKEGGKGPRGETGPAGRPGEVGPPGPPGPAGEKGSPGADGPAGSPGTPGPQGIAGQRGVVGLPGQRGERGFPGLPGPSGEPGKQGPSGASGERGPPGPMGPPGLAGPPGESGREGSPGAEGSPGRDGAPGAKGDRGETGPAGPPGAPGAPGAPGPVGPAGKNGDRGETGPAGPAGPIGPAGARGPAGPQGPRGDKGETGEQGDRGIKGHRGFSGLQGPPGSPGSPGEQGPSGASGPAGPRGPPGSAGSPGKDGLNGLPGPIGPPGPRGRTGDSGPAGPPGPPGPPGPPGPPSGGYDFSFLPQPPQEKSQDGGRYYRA
Sequence of UniProt P02454 (P02466 86-1125, chain 2 of 2, further chain): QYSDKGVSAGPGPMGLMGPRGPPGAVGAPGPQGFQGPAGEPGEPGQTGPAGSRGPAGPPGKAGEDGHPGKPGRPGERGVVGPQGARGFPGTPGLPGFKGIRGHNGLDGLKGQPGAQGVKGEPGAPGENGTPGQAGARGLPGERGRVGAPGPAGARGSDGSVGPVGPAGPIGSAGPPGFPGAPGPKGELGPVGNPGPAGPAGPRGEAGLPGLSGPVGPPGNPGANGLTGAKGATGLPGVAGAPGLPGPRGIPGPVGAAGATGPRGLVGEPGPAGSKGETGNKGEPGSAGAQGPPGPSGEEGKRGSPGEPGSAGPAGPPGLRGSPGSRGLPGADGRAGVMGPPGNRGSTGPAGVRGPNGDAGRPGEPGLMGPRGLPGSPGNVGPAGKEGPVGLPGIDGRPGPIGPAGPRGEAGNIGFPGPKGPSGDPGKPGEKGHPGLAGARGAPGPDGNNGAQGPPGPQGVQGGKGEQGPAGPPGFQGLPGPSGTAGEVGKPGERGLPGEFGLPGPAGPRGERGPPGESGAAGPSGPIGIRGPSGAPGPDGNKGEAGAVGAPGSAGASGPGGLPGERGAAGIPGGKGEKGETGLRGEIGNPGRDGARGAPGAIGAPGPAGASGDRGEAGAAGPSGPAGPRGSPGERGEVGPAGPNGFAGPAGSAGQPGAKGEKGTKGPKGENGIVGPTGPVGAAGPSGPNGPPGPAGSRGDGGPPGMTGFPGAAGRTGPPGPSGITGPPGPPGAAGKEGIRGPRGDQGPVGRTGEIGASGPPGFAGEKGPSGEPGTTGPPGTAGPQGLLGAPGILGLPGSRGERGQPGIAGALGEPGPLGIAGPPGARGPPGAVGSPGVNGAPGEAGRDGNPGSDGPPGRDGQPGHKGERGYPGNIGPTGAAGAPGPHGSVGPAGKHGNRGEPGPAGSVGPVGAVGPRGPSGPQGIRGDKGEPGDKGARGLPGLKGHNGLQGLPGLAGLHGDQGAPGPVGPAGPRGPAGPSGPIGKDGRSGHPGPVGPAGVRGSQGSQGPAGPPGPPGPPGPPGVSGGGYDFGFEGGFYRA

“45-kDa gelatin-binding fibronectin proteolytic fragment, labelled with VivoTag-S750 (domain or fragment)” returned a fold increase in binding to heated collagen, normalized to collagen at 37 °C of 7.2 x and a half-maximal binding temperature (temperature to which the collagen was heated) of 43.4 °C.

On to “fibronectin fragment-conjugated iron oxide nanoworms”, for which the fold increase in binding over unheated controls stood at 6 fold and the half-maximal binding temperature (temperature to which the collagen was heated) worked out at 41.7 °C.
